# Reference: patent publication US12365732 (23ANDME, dated 2025)
# Changes are numbered by the printed parent chain. Numbers in names are those of the source.
# B1: 10G1 (clone 10G1.3G8), purified hybridoma antibody (antibody, V domains shown)
# VH: QIQLVQSGPELKKPGETVKISCKASGYPFTTYGMSWVKQAPGKGLKWMGWINTDSGVPTYADDFKGRFAFSLETSANTAYLQINSLKNEDAATYFCARNIYYGWGNFDYWGQGTILTVSS
# VL: DILMTQSPTTLSVTPGETVSLSCRASQDIYRNLHWYQQKSQGTPRLLIKHASDSISGIPSRFTGSGSGTDFTLSINSVKPEDEGIYYCLQGYSMPYTFGGGTKLEIK
# notes: murine hybridoma IgG
# B2: 9H4, purified hybridoma antibody (antibody, V domains shown)
# VH: EVQLLETGGGLVKSGGSLKLSCAASGFTFSDYYMYWVRQTPEKRLEWVAAISDDGTYTYYPDSVKGRFTISRDNANNYLYLQMSSLKSEDTAIYYCAKAGSYDYFDVWGAGTTVTVSS
# VL: DIVLTQSPASLAVSLGQRAIISCKASQSVTFADTGLMHWYQQKPGQQPKLLIYRASNLEVGVPTRFSGSGSGTDFTLNIHPVEEEDVATYYCQQSREYPWTFGGGTKLEIK
# notes: murine hybridoma IgG
# B3: 7E5, purified hybridoma antibody (antibody, V domains shown)
# VH: QVQLKESGPGLVAPSQSLSIICTVSGFSLTNYGIHWIRQPPGKGLEWLGIIWAGGSTNYNSALMSRLTISKDNSKSQVFLKMNSLQTNDTAIYYCARVSMMGFAYWGQGTLVTVSA
# VL: QAVVTQESALTTSPGETVTLTCRSSTGAVTTSNYANWVQEKPDHLFTGLIGGTNNRAPGVPARFSGSLIGDKAALTITGAQTEDEAIYFCSLWYGSHWVFGGGTKLTVL
# notes: murine hybridoma IgG
# B4: mAb1.v7.NGS9 IgG (antibody, V domains shown)
# VH: EVQLVQSGAEVKKPGASVKVSCKASGFTFTNNFMHWVRQAPGQGLEWIGMIHANSGITNINEKFKNRVTMTTDTSTSTAYMELRSLRSEDTAVYYCRSDGVYEGYFDYWGQGTLVTVSS
# VL: DIQLTQSPSSLSASVGDRVTITCKASQNVGTAIVWYQQKPGKAPKVLIYSASTRYTGVPSRFSGSGSGTDFTLTISSLQPEDFATYYCQQYSSSPLTFGQGTKVEIKG
# notes: human IgG1 N297G
# B5: mAb1.v7.NGS10 IgG (antibody, V domains shown)
# VH: B4 VH with M50F, V101I
# VL: B4 VL
# notes: human IgG1 N297G
# B6: mAb1.v7.NGS11 IgG (antibody, V domains shown)
# VH: B4 VH with M50F
# VL: B4 VL
# notes: human IgG1 N297G
# B7: h10G1 IgG (humanized 10G1) (antibody, V domains shown)
# VH: EIQLVQSGSELKKPGASVKVSCKASGYPFTTYGMSWVRQAPGQGLEWMGWINTDSGVPTYADDFKGRFVFSLDTSVSTAYLQISSLKAEDTAVYFCARNIYYGWGNFDYWGQGTLVTVSS
# VL: EIVMTQSPDFQSVTPKEKVTITCRASQDIYRNLHWYQQKPDQTPKLLIKHASDSISGIPSRFSGSGSGTDFTLTINSLEAEDAAAYYCLQGYSMPYTFGGGTKVEIKG
# notes: human IgG1 N297G
# Assays:
# [1] = target: T1, cynomolgus monkey CD96D1 D3-hFc (cynomolgus monkey); assay: ELISA, coated CD96D1D3-hFc
# T1 construct: also called cy-CD96D1 D3
# Procedure: (§1) CD96 binding of purified hybridoma antibodies: The hu-CD96 and cy-CD96 antigen binding ELISA was performed on the purified hybridoma antibodies. Briefly, 96-well MAXISORP® flat bottom plates (Thermo Fisher Scientific, Waltham, MA; Cat #439454) were coated overnight at 4° C. with 0.5 µg/mL of hu-CD96D1 D3-hFc and cynomolgus monkey CD96D1 D3-hFc in PBS. After removing the coating solution, unspecific binding was blocked by PBS containing 1% bovine serum albumin (blocking buffer) and incubation at room temperature for one hour. Plates were then washed three times with PBS and 0.05% TWEEN®-20 (wash buffer). Serial dilution of purified antibodies in PBS containing 0.5% BSA and 0.05% Tween 20 (ELISA buffer) was added to individual wells followed by incubation at room temperature for one hour with agitation. Plates were washed three times with wash buffer, then 100 µL/well of anti-mouse IgG-HRP (Thermo Fisher Scientific, Waltham, MA; Cat #626520) in ELISA buffer was added. […] Enzymatic color development was stopped with 50 µL/well of TMB stop solution (VWR/Avantor, Radnor, PA, USA; Cat #95059-200). Plates were analyzed with a SpectraMax i3X plate reader (Molecular Devices LLC, San Jose, CA, USA) at 450 nm.
# hu-CD96D1 D3-hFc = hu-CD96D1 D3-hFc (human); assay: ELISA, coated CD96D1D3-hFc
# Procedure: as §1
# [2] = target: T2, cynomolgus monkey CD96 on cynomolgus monkey PBMCs (cynomolgus monkey, UniProt A0A2K5TWV6 22-569); assay: FACS, Ab 80 nM
# T2 construct: whole, on cells
# T2 sequence: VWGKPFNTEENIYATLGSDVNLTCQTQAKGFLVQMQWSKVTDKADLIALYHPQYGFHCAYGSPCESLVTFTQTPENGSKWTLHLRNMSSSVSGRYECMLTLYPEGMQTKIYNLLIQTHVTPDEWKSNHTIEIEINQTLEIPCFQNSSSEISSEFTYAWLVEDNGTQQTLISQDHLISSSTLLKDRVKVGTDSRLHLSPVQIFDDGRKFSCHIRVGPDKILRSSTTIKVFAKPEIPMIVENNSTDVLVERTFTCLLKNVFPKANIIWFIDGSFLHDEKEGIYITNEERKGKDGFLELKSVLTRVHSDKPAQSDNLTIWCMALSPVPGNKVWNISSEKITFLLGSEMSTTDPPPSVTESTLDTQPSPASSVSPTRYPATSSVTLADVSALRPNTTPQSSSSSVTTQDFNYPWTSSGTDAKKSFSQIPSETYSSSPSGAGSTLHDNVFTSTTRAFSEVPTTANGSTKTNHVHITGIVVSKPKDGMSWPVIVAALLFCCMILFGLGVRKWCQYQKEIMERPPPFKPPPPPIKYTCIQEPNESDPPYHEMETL
# Procedure: (§2) The ability of the anti-CD96 antibodies to bind primary immune cells from human and cynomolgus monkey with lower level of receptor expression was measured. Human PBMCs (StemCell Technologies, catalog #70025) and cynomolgus monkey PBMCs (Primate Biologicals, catalog #CM-MC) were incubated with human TruStain FcX (Biolegend, catalog #422302) for 10 minutes at 4° C., followed by incubation with an anti-CD96 antibody for 20 minutes at 4° C. Cells were washed and the anti-CD96 antibody binding was detected by incubation with anti-mouse IgG-PE (Thermo Fisher, catalog #M30204) or anti-human IgG (Fab) 2-PE (Thermo Fisher, catalog #H10104) for 20 minutes at 4° C. Cells were washed, and immune subtypes were labeled with anti-CD3 (BD, catalog #557705), anti-CD4 (Biolegend, catalog #317424) and anti-CD8 (BD, catalog #557760) for 20 minutes at 4° C. Cell binding was analyzed by flow cytometry with a CytoFLEX (Beckman Coulter). Binding curves were calculated as a percentage of cells positive for bound antibody in the cell type of interest.
# [3] = target: T2, cynomolgus monkey CD96 on cynomolgus …; assay: FACS, Ab 0.0256 nM
# Procedure: as §2
# [4] = target: T3, hu-CD96 isoform 2 on CHO cells (human, UniProt P40200 22-585); assay: FACS, blocks 10 nM CD155-Fc-FLAG binding to CD96-CHO
# T3 construct: also called CHO-CD96 (isoform 2); CD96-CHOs
# T3 sequence: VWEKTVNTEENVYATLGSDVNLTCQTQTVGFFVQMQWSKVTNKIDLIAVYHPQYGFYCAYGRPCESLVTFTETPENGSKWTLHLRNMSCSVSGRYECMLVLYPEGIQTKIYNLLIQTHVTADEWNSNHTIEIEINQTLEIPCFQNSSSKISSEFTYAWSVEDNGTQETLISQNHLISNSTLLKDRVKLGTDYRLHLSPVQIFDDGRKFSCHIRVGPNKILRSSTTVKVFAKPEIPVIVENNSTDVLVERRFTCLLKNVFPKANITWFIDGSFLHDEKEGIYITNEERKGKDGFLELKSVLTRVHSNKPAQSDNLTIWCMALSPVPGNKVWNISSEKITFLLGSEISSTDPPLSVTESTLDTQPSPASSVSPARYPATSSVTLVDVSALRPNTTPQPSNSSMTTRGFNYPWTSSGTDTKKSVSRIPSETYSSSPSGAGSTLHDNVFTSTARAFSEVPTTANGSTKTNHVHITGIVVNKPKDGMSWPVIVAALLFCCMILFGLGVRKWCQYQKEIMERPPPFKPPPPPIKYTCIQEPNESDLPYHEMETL
# Procedure: CHO cells stably expressing isoform 2 of hu-CD96 (Origene, catalog #RC221005) were incubated with anti-CD96 antibodies for 20 minutes at 4° C. The cells were washed, and then incubated with 10 nM human CD155-Fc-FLAG for 30 minutes at 4° C. Cells were washed, and then human CD155-Fc-FLAG binding was detected by incubation with anti-FLAG-APC (Columbia Biosciences, catalog #D3-1718-1MG) for 20 minutes at 4° C. Cell binding was analyzed by flow cytometry with a CytoFLEX (Beckman Coulter). CD155 binding is represented as median fluorescence intensity (MedFI).
# As shown in Table 20 (below), the anti-CD96 antibodies, mAb1.v7.NGS8, mAb1.v7.NGS9, mAb1.v7.NGS10, mAb1.v7.NGS11, and h10G1 inhibited soluble hu-CD155 binding to CD96-expressing CHO cells dose-dependently and potently. The antibody NK92.39 (Fuchs et al., 2004; Biolegend catalog #338405) inhibited receptor binding similarly.
binder,measurement,setting,value
B1,EC50,[1],0.2 nM
same,EC50,hu-CD96D1 D3-hFc,0.03 nM
B2,binding result,[1],no binding
same,EC50,hu-CD96D1 D3-hFc,0.24 nM
B3,EC50,[1],0.53 nM
same,EC50,hu-CD96D1 D3-hFc,0.06 nM
B4,% positive,[2],73.8%
same,% positive,[3],19.7%
same,IC50,[4],0.91 nM
B5,% positive,[2],75.2%
same,% positive,[3],37.2%
same,IC50,[4],0.57 nM
B6,% positive,[2],81.9%
same,% positive,[3],41%
same,IC50,[4],0.46 nM
B7,% positive,[2],68.3%
same,% positive,[3],16.8%
same,IC50,[4],0.06 nM
